Measurements taken from the Immune Epitope Database (IEDB).

Legend:
[1] = biological target: HLA-B*39:01; assay: IEDB peptide-MHC binding, purified MHC/competitive/fluorescence; filed as Kd, often an IC50 or EC50 that approximates it; ≥ and ≤ were set here for values at or beyond the usual limits of such assays; conditions: source organism: Escherichia coli str. K-12 substr. MG1655
[2] = biological target: HLA-C*15:02; assay: IEDB peptide-MHC binding, purified MHC/direct/fluorescence; filed as Kd, often an IC50 or EC50 that approximates it; ≥ and ≤ were set here for values at or beyond the usual limits of such assays; conditions: source organism: Escherichia coli str. K-12 substr. MG1655
[3] = biological target: HLA-A*31:01; assay: as above
[4] = biological target: HLA-B*44:02; assay: as above
[5] = biological target: HLA-A*24:03; assay: as above
[6] = biological target: HLA-B*58:01; assay: as above
[7] = biological target: HLA-B*15:01; assay: as above
[8] = biological target: HLA-B*27:05; assay: as above
[9] = biological target: HLA-B*40:01; assay: as above
[10] = biological target: HLA-A*30:01; assay: as above
[11] = biological target: HLA-B*07:02; assay: as above
[12] = biological target: HLA-B*08:01; assay: as above
[13] = biological target: HLA-A*26:01; assay: as above
[14] = biological target: HLA-A*69:01; assay: as above
[15] = biological target: HLA-A*03:01; assay: as above
[16] = biological target: HLA-A*01:01; assay: as above
[17] = biological target: HLA-A*11:01; assay: as above
[18] = biological target: HLA-A*02:01; assay: as above
[19] = biological target: HLA-B*08:01; assay: IEDB peptide-MHC binding, purified MHC/competitive/fluorescence; ≥ and ≤ were set here for values at or beyond the usual limits of such assays
[20] = biological target: HLA-B*07:02; assay: as above
[21] = biological target: HLA-A*24:02; assay: as above; conditions: source organism: Zaire ebolavirus
[22] = biological target: HLA-A*02:01; assay: as above; conditions: source organism: Zaire ebolavirus
[23] = biological target: HLA-B*15:01; assay: as above
[24] = biological target: HLA-A*03:01; assay: as above; conditions: source organism: Variola virus
[25] = biological target: HLA-B*58:01; assay: IEDB peptide-MHC binding, purified MHC/competitive/fluorescence; filed as Kd, often an IC50 or EC50 that approximates it; ≥ and ≤ were set here for values at or beyond the usual limits of such assays; conditions: source organism: Escherichia coli 536
[26] = source organism: Campylobacter jejuni
[27] = source organism: Campylobacter jejuni RM1221
[28] = source organism: Zaire ebolavirus
[29] = source organism: Vaccinia virus Copenhagen
[30] = source organism: Escherichia coli O157:H7
[31] = source organism: Coxiella burnetii

AKIEAPLLL was tested, and the Kd [1] was 7.5 nM and the Kd [2] was no less than 20 µM.

Work on ALIVAIWDK yielded a Kd [3, 26] of 11.8 µM, a Kd [4, 27] of no less than 20 µM and a Kd [5, 27] of no less than 20 µM. For the same sequence, the Kd [6, 27] was no less than 20 µM, the Kd [7, 27] was no less than 20 µM and the Kd [8, 27] was no less than 20 µM. The Kd [9, 27] was no less than 20 µM, the Kd [10, 26] was 8.54 µM and the Kd [11, 27] was no less than 20 µM. It also gave a Kd [12, 27] of no less than 20 µM, a Kd [13, 27] of no less than 20 µM and a Kd [14, 27] of no less than 20 µM. For the same sequence, the Kd [15, 26] was 2700 nM, the Kd [16, 27] was no less than 20 µM and the Kd [17, 26] was 553 nM. For the same sequence, the Kd [18, 26] was no less than 20 µM.

EKVQRQIQV was tested, and the IC50 [19, 28] was no less than 181 µM.

For EVNSFKAAL, the IC50 [20, 28] was no less than 139 µM, the IC50 [19, 28] was no less than 85.9 µM and the IC50 [21] was 33.2 µM. It also gave an IC50 [22] of no less than 236 µM.

In the case of FINKLNGAM, the IC50 [23, 29] is reported as 27.6 µM and the IC50 [19, 29] is reported as no less than 138 µM.

For GITGGHIPK, the Kd [3, 30] was no less than 20 µM, the Kd [4, 30] was no less than 20 µM and the Kd [5, 30] was no less than 20 µM. It also gave a Kd [6, 30] of no less than 20 µM, a Kd [7, 30] of no less than 20 µM and a Kd [8, 30] of no less than 20 µM. It also gave a Kd [9, 30] of no less than 20 µM, a Kd [10, 30] of 0.0722 µM and a Kd [11, 30] of no less than 20 µM. For the same sequence, the Kd [12, 30] was no less than 20 µM, the Kd [13, 30] was no less than 20 µM and the Kd [14, 30] was no less than 20 µM. It also gave a Kd [15, 30] of 392 nM, a Kd [16, 30] of no less than 20 µM and a Kd [17, 30] of 101 nM. The Kd [18, 30] was no less than 20 µM.

Work on IIAVARKHH yielded an IC50 ([23]; source organism: Variola virus) of 27.2 µM, an IC50 ([20]; source organism: Variola virus) of 59.7 µM and an IC50 [24] of 27.7 µM.

IQARPCDRW showed a Kd [25] of 190 nM.

KGPDKLQVY was tested, and the Kd [3, 31] was no less than 20 µM, the Kd [4, 31] was no less than 20 µM and the Kd [6, 31] was no less than 20 µM. It also gave a Kd [7, 31] of 2.42 µM, a Kd [8, 31] of no less than 20 µM and a Kd [9, 31] of no less than 20 µM. It also gave a Kd [10, 31] of 12.3 µM, a Kd [11, 31] of no less than 20 µM and a Kd [12, 31] of no less than 20 µM. The Kd [13, 31] was no less than 20 µM, the Kd [14, 31] was no less than 20 µM and the Kd [15, 31] was no less than 20000 nM. It also gave a Kd [16, 31] of no less than 20 µM, a Kd [17, 31] of no less than 20000 nM and a Kd [18, 31] of no less than 20 µM.
